Reference: article PMC8685691, “A serum-stable RNA aptamer specific for SARS-CoV-2 neutralizes viral entry”

B1: RBD-PB6-Tb (structured_RNA)
RNA: GGUUUGUAAUUCCUGGACCGAUACUUCCGUCAGGACAGACCA
modifications: 2'-fluoro pyrimidines
B2: RBD-PB6-Tinv (structured_RNA)
RNA: GGCGACAUUUGUAAUAGGACGACCGAUACUUCCGUGUCCUCAGAGGUUGCCA
modifications: 2'-fluoro pyrimidines
B3: RBD-PB6-Tc (structured_RNA)
RNA: GGUCCUGGACCGAUACUUCCGUCAGGACCA
modifications: 2'-fluoro pyrimidines
B4: RBD-PB6-Td (structured_RNA)
RNA: GGCGACAUUUGUAAUUCCUGGAUCAGGACAGAGGUUGCCA
modifications: 2'-fluoro pyrimidines
B5: RBD-PB6-Ta (structured_RNA)
RNA: GGCGACAUUUGUAAUUCCUGGACCGAUACUUCCGUCAGGACAGAGGUUGCCA
modifications: 2'-fluoro pyrimidines
B6: RBD-PB6 (structured_RNA)
RNA: GGGGCCACCAACGACAUUUGUAAUUCCUGGACCGAUACUUCCGUCAGGACAGAGGUUGAUAUAAAUAGUGCCCAUGGAUCC
modifications: 2'-fluoro pyrimidines

Legend:
[1] = target: SARS-CoV-2 spike RBD, C-tagged (SARS-CoV-2 (WT), UniProt P0DTC2 319-532); test: BLI competition
[2] = target: T1, SARS-CoV-2 spike RBD, WT, His-tagged (SARS-CoV-2 (WT), UniProt P0DTC2 319-532); test: BLI competition
[3] = target: T1, SARS-CoV-2 spike RBD, WT, His-tagged; test: FIDA
[4] = target: T1, SARS-CoV-2 spike RBD, WT, His-tagged; test: BLI

Binder	binding result [1]	IC50 [2]	further results
B1	no binding		
B2	no binding		
B3	no binding		
B4	no binding		
B5		200 nM	
B6		~250 nM	Kd [3]: 129 nM; Kd [4]: ~18 nM
